± gives the uncertainty stated by the source.
B1: Far upstream element-binding protein 2, residues 142 to 214; numbered along this chain, Q92945 (parent)
chain: RTSMTEEYRVPDGMVGLIIGRGGEQINKIQQDSGCKVQISPDSGGLPERSVSLTGAPESVQKAKMMLDDIVSR

Variants of: B1
Assay: abundance fitness (aPCA) (normalised: wild type 0, dead -1); higher = more abundant; growth selection in yeast, the domain comes from the species named
Settings: Homo sapiens

Variant	abundance fitness
S59V	-0.326 ± 0.046
S59G	-0.149 ± 0.039
S59N	-0.062 ± 0.097
S59F	-0.528 ± 0.1
S59Q	-0.037 ± 0.051
S59C	-0.063 ± 0.057
R21G	-0.043 ± 0.036
R21M	-0.002 ± 0.047
R21P	0.008 ± 0.042
R21F	-0.146 ± 0.065
Q38N	-0.025 ± 0.082
Q38A	0.02 ± 0.044
Q38D	-0.112 ± 0.075
Q38E	0.129 ± 0.054
Q38C	-0.019 ± 0.065
S52D	-0.312 ± 0.067
S52P	-0.874 ± 0.065
S52E	0 ± 0.048
S52Q	-0.011 ± 0.055
I19W	-0.144 ± 0.07
I19V	-0.016 ± 0.049

Variant	abundance fitness
I19E	-0.103 ± 0.076
I19L	0.008 ± 0.045
I19K	-0.01 ± 0.072
L46C	0.031 ± 0.06
L46H	-0.117 ± 0.085
L46D	-0.045 ± 0.06
L46W	-0.171 ± 0.047
L46V	-0.104 ± 0.042
L46G	0.07 ± 0.039
L46P	-0.145 ± 0.06
L46A	-0.056 ± 0.051
Y8R	-0.455 ± 0.037
Y8T	-0.214 ± 0.048
Y8Q	-0.51 ± 0.058
Y8E	-0.496 ± 0.045
G45N	-0.11 ± 0.076
G45W	-0.351 ± 0.056
G45H	-0.011 ± 0.095
G45Q	-0.1 ± 0.063
S43I	-0.098 ± 0.086
S43H	-0.113 ± 0.065

Variant	abundance fitness
S43R	-0.023 ± 0.041
S43N	-0.046 ± 0.075
S43K	-0.1 ± 0.064
S33H	-0.854 ± 0.11
S33E	-0.854 ± 0.061
S33M	-0.806 ± 0.086
S33A	-0.138 ± 0.044
S33C	-0.053 ± 0.061
V51Y	-0.5 ± 0.1
V51C	-0.189 ± 0.075
V51D	-0.834 ± 0.083
V51F	-0.089 ± 0.088
V51I	0.117 ± 0.085
V51G	-0.832 ± 0.048
E48M	-0.047 ± 0.057
E48F	-0.109 ± 0.075
E48D	-0.033 ± 0.069
E48L	-0.12 ± 0.041
E48V	-0.103 ± 0.047
E48N	-0.161 ± 0.12
M4P	-0.365 ± 0.051

Variant	abundance fitness
M4N	-0.178 ± 0.084
M4Q	0.057 ± 0.054
M4E	-0.085 ± 0.047
R73V	-0.074 ± 0.049
R73D	0.021 ± 0.076
R73I	0.027 ± 0.1
R73K	0.016 ± 0.069
R73F	-0.162 ± 0.19
R73W	-0.201 ± 0.061
R73L	-0.004 ± 0.054
E24S	-0.076 ± 0.047
E24N	-0.106 ± 0.11
E24Y	0.05 ± 0.11
E24M	-0.059 ± 0.069
E24P	-0.797 ± 0.071
E24I	-0.251 ± 0.11
Q25V	-0.019 ± 0.053
Q25K	-0.158 ± 0.068
Q25L	-0.039 ± 0.046
Q25S	-0.067 ± 0.05
